Reference: US20260265379A1 (IMCHECK THERAPEUTICS, published 2026)

B1: bsAb011 (bispecific antibody)
heavy: QVQLVQSGAEVKKPGASVKLSCKASGYIFTRYYMYWVKQRPGQGLEWIGEINPNNGGTKFNEKFKNRATLTVDKSISTAYMELSRLRSDDTAVYYCSREDDYDGTPFAMDYWGQGTLVTVSSASTKGPSVFPLAPSSKSTSGGTAALGCLVKDYFPEPVTVSWNSGALTSGVHTFPAVLQSSGLYSLSSVVTVPSSSLGTQTYICNVNHKPSNTKVDKRVEPKSCDKTHTCPPCPAPEFEGGPSVFLFPPKPKDTLMISRTPEVTCVVVDVSHEDPEVKFNWYVDGVEVHNAKTKPREEQYNSTYRVVSVLTVLHQDWLNGKEYKCKVSNKALPASIEKTISKAKGQPREPQVYTLPPSREEMTKNQVSLTCLVKGFYPSDIAVEWESNGQPENNYKTTPPVLDSDGSFFLYSKLTVDKSRWQQGNVFSCSVMHEALHNHYTQKSLSLSPG
light: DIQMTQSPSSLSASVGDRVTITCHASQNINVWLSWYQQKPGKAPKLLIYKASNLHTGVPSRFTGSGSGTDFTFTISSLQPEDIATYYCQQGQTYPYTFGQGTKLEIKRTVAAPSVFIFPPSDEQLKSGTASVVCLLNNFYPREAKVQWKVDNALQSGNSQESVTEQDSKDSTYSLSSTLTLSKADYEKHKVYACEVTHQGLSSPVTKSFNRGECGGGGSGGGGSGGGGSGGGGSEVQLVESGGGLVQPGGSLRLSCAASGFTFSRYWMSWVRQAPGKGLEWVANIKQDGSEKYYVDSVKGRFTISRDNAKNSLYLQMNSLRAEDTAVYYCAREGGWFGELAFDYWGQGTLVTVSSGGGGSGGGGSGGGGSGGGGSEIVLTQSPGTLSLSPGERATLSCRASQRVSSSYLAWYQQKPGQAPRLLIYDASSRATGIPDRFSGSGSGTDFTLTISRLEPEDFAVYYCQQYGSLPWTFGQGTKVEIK
notes: IgG anti-BTN3A, scFv anti-PD-L1
B2: bsAb035 (bispecific antibody)
heavy (part 1 of 2): QVQLVQSGAEVKKPGASVKLSCKASGYIFTRYYMYWVKQRPGQGLEWIGEINPNNGGTKFNEKFKNRATLTVDKSISTAYMELSRLRSDDTAVYYCSREDDYDGTPFAMDYWGQGTLVTVSS
heavy (part 2 of 2): GGGGSGGGGSGGGGSGGGGSEVQLVESGGGLVQPGGSLRLSCAASGFTFSRYWMSWVRQAPGKGLEWVANIKQDGSEKYYVDSVKGRFTISRDNAKNSLYLQMNSLRAEDTAVYYCAREGGWFGELAFDYWGQGTLVTVSSGGGGSGGGGSGGGGSGGGGSEIVLTQSPGTLSLSPGERATLSCRASQRVSSSYLAWYQQKPGQAPRLLIYDASSRATGIPDRFSGSGSGTDFTLTISRLEPEDFAVYYCQQYGSLPWTFGQGTKVEIK
heavy: B2 heavy (part 1 of 2)
light: not shown
notes: IgG anti-BTN3A, one scFv anti-PD-L1; not shown: IgG1 CH1-hinge-CH2-CH3
B3: bsAb040 (bispecific antibody)
heavy (part 1 of 2): B2 heavy (part 1 of 2)
heavy (part 2 of 2): GGGGSGGGGSGGGGSGGGGSEIVLTQSPGTLSLSPGERATLSCRASQRVSSSYLAWYQQKPGQAPRLLIYDASSRATGIPDRFSGSGSGTDFTLTISRLEPEDFAVYYCQQYGSLPWTFGQGTKVEIKGGGGSGGGGSGGGGSGGGGSEVQLVESGGGLVQPGGSLRLSCAASGFTFSRYWMSWVRQAPGKGLEWVANIKQDGSEKYYVDSVKGRFTISRDNAKNSLYLQMNSLRAEDTAVYYCAREGGWFGELAFDYWGQGTLVTVSS
heavy: B2 heavy (part 1 of 2)
light: not shown
notes: as for B2
B4: bsAb055 (bispecific antibody)
heavy 1: B2 heavy (part 2 of 2)
heavy 2: B2 heavy (part 1 of 2)
light: not shown
notes: one Fab arm anti-BTN3A, one scFv anti-PD-L1; not shown: CH2-CH3 (Fc); IgG1 CH1-hinge-CH2-CH3
B5: bsAb041 (bispecific antibody)
heavy (part 1 of 2): EVQLVESGGGLVQPGGSLRLSCAASGFTFSRYWMSWVRQAPGKGLEWVANIKQDGSEKYYVDSVKGRFTISRDNAKNSLYLQMNSLRAEDTAVYYCAREGGWFGELAFDYWGQGTLVTVSS
heavy (part 2 of 2): GGGGSGGGGSGGGGSGGGGSDIQMTQSPSSLSASVGDRVTITCHASQNINVWLSWYQQKPGKAPKLLIYKASNLHTGVPSRFTGSGSGTDFTFTISSLQPEDIATYYCQQGQTYPYTFGQGTKLEIKGGGGSGGGGSGGGGSGGGGSQVQLVQSGAEVKKPGASVKLSCKASGYIFTRYYMYWVKQRPGQGLEWIGEINPNNGGTKFNEKFKNRATLTVDKSISTAYMELSRLRSDDTAVYYCSREDDYDGTPFAMDYWGQGTLVTVSS
heavy: B5 heavy (part 2 of 2)
light: EIVLTQSPGTLSLSPGERATLSCRASQRVSSSYLAWYQQKPGQAPRLLIYDASSRATGIPDRFSGSGSGTDFTLTISRLEPEDFAVYYCQQYGSLPWTFGQGTKVEIKRTVAAPSVFIFPPSDEQLKSGTASVVCLLNNFYPREAKVQWKVDNALQSGNSQESVTEQDSKDSTYSLSSTLTLSKADYEKHKVYACEVTHQGLSSPVTKSFNRGEC
notes: one Fab arm anti-PD-L1, two scFv anti-BTN3A; not shown: IgG1 CH1-hinge-CH2-CH3; CH2-CH3 (Fc)
B6: bsAb054 (bispecific antibody)
heavy (part 1 of 2): B5 heavy (part 1 of 2)
heavy (part 2 of 2): GGGGSGGGGSGGGGSGGGGSQVQLVQSGAEVKKPGASVKLSCKASGYIFTRYYMYWVKQRPGQGLEWIGEINPNNGGTKFNEKFKNRATLTVDKSISTAYMELSRLRSDDTAVYYCSREDDYDGTPFAMDYWGQGTLVTVSSGGGGSGGGGSGGGGSGGGGSDIQMTQSPSSLSASVGDRVTITCHASQNINVWLSWYQQKPGKAPKLLIYKASNLHTGVPSRFTGSGSGTDFTFTISSLQPEDIATYYCQQGQTYPYTFGQGTKLEIK
heavy: B5 heavy (part 1 of 2)
light: B5 light
notes: IgG anti-PD-L1, one scFv anti-BTN3A; not shown: IgG1 CH1-hinge-CH2-CH3
B7: bsAb069 (bispecific antibody)
heavy 1: B5 heavy (part 1 of 2)
heavy 2: DIQMTQSPSSLSASVGDRVTITCHASQNINVWLSWYQQKPGKAPKLLIYKASNLHTGVPSRFTGSGSGTDFTFTISSLQPEDIATYYCQQGQTYPYTFGQGTKLEIKGGGGSGGGGSGGGGSGGGGSQVQLVQSGAEVKKPGASVKLSCKASGYIFTRYYMYWVKQRPGQGLEWIGEINPNNGGTKFNEKFKNRATLTVDKSISTAYMELSRLRSDDTAVYYCSREDDYDGTPFAMDYWGQGTLVTVSSGGGGSGGGGSGGGGSGGGGS
light: EIVLTQSPGTLSLSPGERATLSCRASQRVSSSYLAWYQQKPGQAPRLLIYDASSRATGIPDRFSGSGSGTDFTLTISRLEPEDFAVYYCQQYGSLPWTFGQGTKVEIKRTVAAPSVFIFPPSDEQLKSGTASVVCLLNNFYPREAKVQWKVDNALQSGNSQESVTEQDSKDSTYSLSSTLTLSKADYEKHKVYACEVTHQGLSSPVTKSFNRGECGGGGSGGGGSGGGGSGGGGSQVQLVQSGAEVKKPGASVKLSCKASGYIFTRYYMYWVKQRPGQGLEWIGEINPNNGGTKFNEKFKNRATLTVDKSISTAYMELSRLRSDDTAVYYCSREDDYDGTPFAMDYWGQGTLVTVSSGGGGSGGGGSGGGGSGGGGSDIQMTQSPSSLSASVGDRVTITCHASQNINVWLSWYQQKPGKAPKLLIYKASNLHTGVPSRFTGSGSGTDFTFTISSLQPEDIATYYCQQGQTYPYTFGQGTKLEIK
notes: not shown: IgG1 CH1-hinge-CH2-CH3; CH2-CH3 (Fc)
B8: bsAb070 (bispecific antibody)
heavy 1: B5 heavy (part 1 of 2)
heavy 2: QVQLVQSGAEVKKPGASVKLSCKASGYIFTRYYMYWVKQRPGQGLEWIGEINPNNGGTKFNEKFKNRATLTVDKSISTAYMELSRLRSDDTAVYYCSREDDYDGTPFAMDYWGQGTLVTVSSGGGGSGGGGSGGGGSGGGGSDIQMTQSPSSLSASVGDRVTITCHASQNINVWLSWYQQKPGKAPKLLIYKASNLHTGVPSRFTGSGSGTDFTFTISSLQPEDIATYYCQQGQTYPYTFGQGTKLEIKGGGGSGGGGSGGGGSGGGGS
light: EIVLTQSPGTLSLSPGERATLSCRASQRVSSSYLAWYQQKPGQAPRLLIYDASSRATGIPDRFSGSGSGTDFTLTISRLEPEDFAVYYCQQYGSLPWTFGQGTKVEIKRTVAAPSVFIFPPSDEQLKSGTASVVCLLNNFYPREAKVQWKVDNALQSGNSQESVTEQDSKDSTYSLSSTLTLSKADYEKHKVYACEVTHQGLSSPVTKSFNRGECGGGGSGGGGSGGGGSGGGGSDIQMTQSPSSLSASVGDRVTITCHASQNINVWLSWYQQKPGKAPKLLIYKASNLHTGVPSRFTGSGSGTDFTFTISSLQPEDIATYYCQQGQTYPYTFGQGTKLEIKGGGGSGGGGSGGGGSGGGGSQVQLVQSGAEVKKPGASVKLSCKASGYIFTRYYMYWVKQRPGQGLEWIGEINPNNGGTKFNEKFKNRATLTVDKSISTAYMELSRLRSDDTAVYYCSREDDYDGTPFAMDYWGQGTLVTVSS
notes: as for B7

What was measured:
recombinant human BTN3A1 = target: T1, recombinant human BTN3A1 (human, UniProt O00481 30-254); assay: SPR
T1 construct: Soluble form of the antigen used in SPR; also called rhBTN3A1; recombinant BTN3A1 protein

recombinant human PD-L1 = target: T2, recombinant human PD-L1 (human, UniProt Q9NZQ7 19-239, limits assumed); assay: SPR
T2 construct: Soluble antigen in SPR; also called rhPD-L1

[1] = target: T3, PD-L1 at the surface of transduced cells (UniProt Q9NZQ7 19-290, limits assumed); assay: cell-based or functional assay
[2] = target: T3, PD-L1 at the surface of transduced cells; assay: flow cytometry, CHO-PD-L1 cells
[3] = target: T4, BTN3A1 at the surface of HEK-BTN3A1 cells (human, UniProt O00481 30-513); assay: flow cytometry, HEK-BTN3A1 cells
T4 construct: HEK 293T BTN2A/BTN3A KO cells transduced with a BTN3A1 expressing vector
T4 sequence (O00481 30-513 limits assumed): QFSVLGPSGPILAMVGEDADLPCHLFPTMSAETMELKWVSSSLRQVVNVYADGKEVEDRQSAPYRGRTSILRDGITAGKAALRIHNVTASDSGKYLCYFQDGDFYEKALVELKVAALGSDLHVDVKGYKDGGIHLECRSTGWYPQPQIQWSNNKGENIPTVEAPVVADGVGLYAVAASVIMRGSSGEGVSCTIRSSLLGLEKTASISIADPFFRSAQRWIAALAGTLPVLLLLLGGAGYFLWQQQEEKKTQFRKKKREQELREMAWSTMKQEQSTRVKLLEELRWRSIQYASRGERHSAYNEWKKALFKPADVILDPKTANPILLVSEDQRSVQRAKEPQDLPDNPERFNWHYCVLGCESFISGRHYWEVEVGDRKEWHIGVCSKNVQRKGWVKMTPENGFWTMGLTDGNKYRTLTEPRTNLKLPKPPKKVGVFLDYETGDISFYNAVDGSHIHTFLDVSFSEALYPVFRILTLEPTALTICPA

T3 sequence (Q9NZQ7 19-290 limits assumed): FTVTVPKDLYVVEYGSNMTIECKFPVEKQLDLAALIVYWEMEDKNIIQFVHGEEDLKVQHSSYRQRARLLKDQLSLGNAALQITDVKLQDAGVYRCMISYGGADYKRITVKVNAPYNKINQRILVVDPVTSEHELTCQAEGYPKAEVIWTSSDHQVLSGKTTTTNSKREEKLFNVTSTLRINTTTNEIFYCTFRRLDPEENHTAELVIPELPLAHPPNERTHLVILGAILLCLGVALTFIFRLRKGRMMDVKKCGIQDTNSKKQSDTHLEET
T2 sequence (Q9NZQ7 19-239 limits assumed): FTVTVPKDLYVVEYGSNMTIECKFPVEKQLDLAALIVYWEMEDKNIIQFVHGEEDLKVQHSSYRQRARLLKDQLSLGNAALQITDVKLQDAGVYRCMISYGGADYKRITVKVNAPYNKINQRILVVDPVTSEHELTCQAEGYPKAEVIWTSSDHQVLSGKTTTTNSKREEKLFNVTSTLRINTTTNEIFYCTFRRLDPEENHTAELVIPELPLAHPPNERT
T1 sequence (O00481 30-254 limits assumed): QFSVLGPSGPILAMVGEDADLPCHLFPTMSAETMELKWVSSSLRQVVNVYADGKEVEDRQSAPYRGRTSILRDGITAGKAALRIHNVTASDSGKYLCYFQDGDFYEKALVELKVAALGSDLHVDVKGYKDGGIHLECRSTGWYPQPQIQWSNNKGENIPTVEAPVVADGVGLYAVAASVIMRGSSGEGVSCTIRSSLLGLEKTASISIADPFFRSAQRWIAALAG

Row | Binder | Kd (recombinant human BTN3A1) | Kd (recombinant human PD-L1) | Jurkat-PD-1 activation at 10 nM [1] | Jurkat-PD-1 activation at 100 nM [1] | MFI at 10 nM [2] | MFI at 100 nM [2] | MFI at 10 nM [3] | MFI at 100 nM [3]
1 | B1 | 0.504 nM | 0.043 nM | 6.4 fold-change to medium | 2.3 fold-change to medium | 682000 MFI | 722000 MFI | 512000 MFI | 1.14e+06 MFI
2 | B2 | 0.068 nM | 0.097 nM | 5 fold-change to medium | 7.9 fold-change to medium | 973000 MFI | 1.28e+06 MFI | 525000 MFI | 1.03e+06 MFI
3 | B3 | 0.065 nM | 0.066 nM | 6 fold-change to medium | 7.5 fold-change to medium | 1.04e+06 MFI | 1.25e+06 MFI | 634000 MFI | 1.23e+06 MFI
4 | B4 | 0.076 nM | 0.108 nM | 5.8 fold-change to medium | 7.4 fold-change to medium | 820000 MFI | 984000 MFI | 344000 MFI | 862000 MFI
5 | B5 | 0.101 nM | 0.053 nM | – | – | 1.14e+06 MFI | 1.3e+06 MFI | 1.1e+06 MFI | 1.67e+06 MFI
6 | B6 | 0.126 nM | 0.033 nM | – | – | 664000 MFI | 690000 MFI | 424000 MFI | 1.06e+06 MFI
7 | B7 | 0.1 nM | 0.076 nM | – | – | 1.02e+06 MFI | 1.16e+06 MFI | 635000 MFI | 1.18e+06 MFI
8 | B8 | 0.074 nM | 0.079 nM | – | – | 1.05e+06 MFI | 1.2e+06 MFI | 790000 MFI | 1e+06 MFI
